Reference: publication PMC101404

Substrate: NCC(N)C(=O)O
Assay: purified protein
Assay type: biochemical, Salmonella enterica
Settings: potassium phosphate pH 8.0, 28 °C, PLP, NADH, LDH coupling

B1: Diamino propionic acid (DAP) ammonia lyase (Salmonella enterica subsp. enterica serovar Typhimurium str. LT2) (protein)
chain: MHELIKYQFNTRRKKYGTGAALSLLNGNVGHEVLAFHKKLPNYAVTPLHNLAHLSQRLGLGSIHIKDESWRFGLNAFKGLGGSYAVGKYLADKLQCDINSLSFAALNTPEIKEKIKDCVFVTATDGNHGRGVAWAAEQLGLKAVVYMPKGSSLIRAENIRHHGAECTITDLNYDDAVRLAHRMAQTKGWVLLQDTAWTGYEEIPTWIMQGYMTLAVEAYEQLAETNSPLPTHLILQAGVGSFAGSVMGYFVEKMQENIPNIIVVEPHQANCLYQSAVMDDGQPHCVTGDMATIMAGLACGEPNIISWPIIRDNTSCFISADDCLAAKGMRISAAPRPGTDTPFISGESGAIGVGLLYELMNNMHYQDLANRLQLDASAHVLLISTEGDTSPDIYEDIVWNGRSA
Km: 0.685 mM
